How the values were obtained:
DOHH2 cells = experiment: BTK, SYK and ERK activation in anti-IgG-stimulated DOHH2 cells; assay type: cell-based, human
Experimental: (§1) FIG. 7A-H. The solHVEM (either Leu39-Va1202 or Pro37-Va1202) protein restores tumor suppressive effects of HVEM.
FIG. 14A-E. Effect of solHVEM (either Leu39-Va1202 or Pro37-Va1202) on murine and human FL B cells. FIG. 14A and FIG. 14B, Quantification of pSYK levels in DOHH2 lymphoma cells that were stimulated with anti-IgG in the presence or absence of Pro37-Va1202 solHVEM (5 μg/ml) (* indicated p<0.01); representative FACS measurement in (FIG. 14B) FIG. 14C, FACS analysis of BTLA expression in a panel of lymphoma lines including murine myc/bc12 lymphomas and human lines (DOHH2, Su-DHL6, Granta, Ly10); FIG. 14D, representative pictures of tumors from mice; FIG. 14E, tumor weight of mouse tumors (n=3, p<0.01).
FIG. 15A-B. sTNFRSF14 opposes B cell receptor signaling in lymphoma B cells by decreasing P-BTK. A B-cell lymphoma cell line (DOHH2) was pre-treated for one hour with the soluble ectodomain of TNFRSF14 (sTNFRSF14) Pro 37-Val 202 (5 ug/ml) or the BTK inhibitor Ibrutinib (10nmM) and then stimulated for 5 mins at 37° C. with anti-IgG molecule. The cells were subsequently fixed and permeabilized and probed for pBTK expression using phospo-flow antibodies and analyzed on BD Fortessa. FIG. 15A, Representative FACS plots. FIG. 15B, Quantification of mean fluorescence intensity of phospho-BTK after treatment with vehicle or drug.
FIG. 16A-B. sTNFRSF14 opposes B-cell receptor signaling in lymphoma B cells by decreasing P-SYK. A B-cell lymphoma cell line (DOHH2) was pre-treated for one hour with the soluble ectodomain of TNFRSF14 (sTNFRSF14) Pro37-Val 202 (5 ug/ml) or the BTK inhibitor Ibrutinib (10nmM) and then stimulated for 5 mins at 37° C. with anti-IgG molecule. The cells were subsequently fixed and permeabilized and probed for pSYK expression using phospo-flow antibodies and analyzed on a BD Fortessa. FIG. 16A, Representative FACS plots. FIG. 16B, Quantification of mean fluorescence intentisty of phospho-SYK after treatment with vehicle or drug.
(§2) Building on these findings, experiments were performed to test whether solHVEM would have any single agent activity against lymphomas. First, the expression of the BTLA receptor was characterized across a panel of human and mouse lymphoma (mostly DLBCL) cell lines. […] Next, experiments were performed to test if solHVEM had any effect on established BTLA^hi lymphomas in vivo. Briefly, aggressive MYC/BCL2 double positive murine lymphoma cells that express BTLA (BTLA^hi) were transplanted into the flanks of J:Nu nude mice and mice were treated with 20 μg of solHVEM or vehicle (PBS) every three days for a total four times once the engrafted tumors reached a volume of ˜50 mm3. […] Similar results were obtained both in vitro and in vivo with a different soluble HVEM molecule consisting of the extracellular region from amino acids Pro37 to Va1202 (SEQ ID NO. 6).
For phospho-BTK, phospho-Syk staining, cells were pretreated for 60 min with either 5 μg/mL of sHVEM (R&D Systems) or 10 ng/mL Ibrutinib (ChemieTek PCI-32765) at 37° C. Cells were fixed by adding equal volume of formaldehyde directly to the cells. Cells were incubated for 10 minutes at room temperature, washed 2× in PBS and the residual cells were permeabilized in 1 mL of ice cold methanol (100%) for 30 min on ice. Cells were then washed twice and stained with the phospho-BTK (Bd Biosciences clone N35-88) and phospho-Syk (Bd Biosciences clone 17 A/P-Zap70) and analyzed on BD LSRFortessa. […]

[1] = tested on: human and mouse lymphoma cell lines; experiment: Cell proliferation in panel of BTLAhi and BTLAlo lymphoma cell lines; assay type: cell-based
Experimental: as §1
FIG. 17. sTNFRSF14 inhibits the growth of lymphoma cell lines in vitro. Three lymphoma cell lines (Myc-Bc12, LY-10, Granta) were plated at 1×10^5 cells/ml and were treated with sTNFRSF14 (5 ug/ml) or vehicle each day for 72 hours. After 72 hours cells were counted using a hemocytometer. Each bar represents the average of three independent experiments.
as §2
Lymphoma cell lines DoHH2, Ly-10, Granta, Su-DHL-6 were maintained in RPMI 1640 with 10% fetal bovine serum, 1% L-Glutamine and 1% penicillin/streptomycin. Mouse lymphoma cell line myc-bcl2 was maintained in IMDM-DMEM (50:50) with 10% fetal bovine serum, 1% L-Glutamine, and 1% penicillin/streptomycin. Cell lines were seeded at 5×10^5/mL and were treated with 5 m/m1 of sHVEM. After 24 hours cell number was counted using hemocytometer for a total of 72 hours after treatment.

[2] = DOHH2 (BTLAhi, HVEM deleted), 10 μg/ml

Q: What does the source list for “solHVEM: Leu39-Val202 soluble HVEM ectodomain polypeptide of SEQ ID NO. 8”?
A: ERK activation (DOHH2 cells; [2]): readily blocked; SYK activation (DOHH2 cells; [2]): readily blocked; growth of BTLAhi lymphoma cells ([1]; BTLAhi lines (DOHH2, SU-DHL6, murine MYC/BCL2), 5 μg/ml): significant growth inhibition; growth of BTLAlo lymphoma cells ([1]; BTLAlo lines (Granta, Su-DHL10), 5 μg/ml): not affected

B1: sTNFRSF14: Pro37-Val202 soluble HVEM ectodomain polypeptide of SEQ ID NO. 6 (protein, listed as Homo sapiens)
chain: PALPSCKEDEYPVGSECCPKCSPGYRVKEACGELTGTVCEPCPPGTYIAHLNGLSKCLQCQMCDPAMGLRASRNCSRTENAVCGCSPGHFCIVQDGDHCAACRAYATSSPGQRVQKGGTESQDTLCQNCPPGTFSPNGTLEECQHQTKCSWLVTKAGAGTSSSHWV
Q: Which results are given for B1?
A: BTK activation (DOHH2 cells; [2]): readily blocked; activation (phosphorylation) of BTK (DOHH2 cells; DOHH2, one hour pre-incubation, 5 ug/ml, anti-IgG): effectively blocked; levels of phosphorylated SYK (DOHH2 cells; DOHH2, one hour pre-treatment, 5 ug/ml, anti-IgG): inhibited; cell growth in cell lines that did not express BTLA ([1]; 5 ug, three days): did not inhibit cell growth; cell growth in cell lines with highest BTLA levels ([1]; Myc-Bc12 cell line, 5 ug, three days): largest effect on growth

From patent US11261232B2, “TNFRSF14 / HVEM proteins and methods of use thereof” (MEMORIAL SLOAN KETTERING CANCER CENTER, priority 2015, dated 2022)
